Reference: PMC4808650
Like-named read-outs stand apart in the source and are kept apart here.

Key:
[1] = molecular target: Chlamydomonas outer arm axonemal dynein, α and β HC complex from strain oda2-t-lc2-bccp (Chlamydomonas reinhardtii) (UniProt Q39565)
[2] = molecular target: Chlamydomonas outer arm axonemal dynein, α and β HC complex from strain oda2-t-lc2-bccp (Chlamydomonas reinhardtii) (UniProt Q39565); remark: listed apart in the source

Chain of UniProt Q39565 (Q39565 whole entry, looked up, one chain of several): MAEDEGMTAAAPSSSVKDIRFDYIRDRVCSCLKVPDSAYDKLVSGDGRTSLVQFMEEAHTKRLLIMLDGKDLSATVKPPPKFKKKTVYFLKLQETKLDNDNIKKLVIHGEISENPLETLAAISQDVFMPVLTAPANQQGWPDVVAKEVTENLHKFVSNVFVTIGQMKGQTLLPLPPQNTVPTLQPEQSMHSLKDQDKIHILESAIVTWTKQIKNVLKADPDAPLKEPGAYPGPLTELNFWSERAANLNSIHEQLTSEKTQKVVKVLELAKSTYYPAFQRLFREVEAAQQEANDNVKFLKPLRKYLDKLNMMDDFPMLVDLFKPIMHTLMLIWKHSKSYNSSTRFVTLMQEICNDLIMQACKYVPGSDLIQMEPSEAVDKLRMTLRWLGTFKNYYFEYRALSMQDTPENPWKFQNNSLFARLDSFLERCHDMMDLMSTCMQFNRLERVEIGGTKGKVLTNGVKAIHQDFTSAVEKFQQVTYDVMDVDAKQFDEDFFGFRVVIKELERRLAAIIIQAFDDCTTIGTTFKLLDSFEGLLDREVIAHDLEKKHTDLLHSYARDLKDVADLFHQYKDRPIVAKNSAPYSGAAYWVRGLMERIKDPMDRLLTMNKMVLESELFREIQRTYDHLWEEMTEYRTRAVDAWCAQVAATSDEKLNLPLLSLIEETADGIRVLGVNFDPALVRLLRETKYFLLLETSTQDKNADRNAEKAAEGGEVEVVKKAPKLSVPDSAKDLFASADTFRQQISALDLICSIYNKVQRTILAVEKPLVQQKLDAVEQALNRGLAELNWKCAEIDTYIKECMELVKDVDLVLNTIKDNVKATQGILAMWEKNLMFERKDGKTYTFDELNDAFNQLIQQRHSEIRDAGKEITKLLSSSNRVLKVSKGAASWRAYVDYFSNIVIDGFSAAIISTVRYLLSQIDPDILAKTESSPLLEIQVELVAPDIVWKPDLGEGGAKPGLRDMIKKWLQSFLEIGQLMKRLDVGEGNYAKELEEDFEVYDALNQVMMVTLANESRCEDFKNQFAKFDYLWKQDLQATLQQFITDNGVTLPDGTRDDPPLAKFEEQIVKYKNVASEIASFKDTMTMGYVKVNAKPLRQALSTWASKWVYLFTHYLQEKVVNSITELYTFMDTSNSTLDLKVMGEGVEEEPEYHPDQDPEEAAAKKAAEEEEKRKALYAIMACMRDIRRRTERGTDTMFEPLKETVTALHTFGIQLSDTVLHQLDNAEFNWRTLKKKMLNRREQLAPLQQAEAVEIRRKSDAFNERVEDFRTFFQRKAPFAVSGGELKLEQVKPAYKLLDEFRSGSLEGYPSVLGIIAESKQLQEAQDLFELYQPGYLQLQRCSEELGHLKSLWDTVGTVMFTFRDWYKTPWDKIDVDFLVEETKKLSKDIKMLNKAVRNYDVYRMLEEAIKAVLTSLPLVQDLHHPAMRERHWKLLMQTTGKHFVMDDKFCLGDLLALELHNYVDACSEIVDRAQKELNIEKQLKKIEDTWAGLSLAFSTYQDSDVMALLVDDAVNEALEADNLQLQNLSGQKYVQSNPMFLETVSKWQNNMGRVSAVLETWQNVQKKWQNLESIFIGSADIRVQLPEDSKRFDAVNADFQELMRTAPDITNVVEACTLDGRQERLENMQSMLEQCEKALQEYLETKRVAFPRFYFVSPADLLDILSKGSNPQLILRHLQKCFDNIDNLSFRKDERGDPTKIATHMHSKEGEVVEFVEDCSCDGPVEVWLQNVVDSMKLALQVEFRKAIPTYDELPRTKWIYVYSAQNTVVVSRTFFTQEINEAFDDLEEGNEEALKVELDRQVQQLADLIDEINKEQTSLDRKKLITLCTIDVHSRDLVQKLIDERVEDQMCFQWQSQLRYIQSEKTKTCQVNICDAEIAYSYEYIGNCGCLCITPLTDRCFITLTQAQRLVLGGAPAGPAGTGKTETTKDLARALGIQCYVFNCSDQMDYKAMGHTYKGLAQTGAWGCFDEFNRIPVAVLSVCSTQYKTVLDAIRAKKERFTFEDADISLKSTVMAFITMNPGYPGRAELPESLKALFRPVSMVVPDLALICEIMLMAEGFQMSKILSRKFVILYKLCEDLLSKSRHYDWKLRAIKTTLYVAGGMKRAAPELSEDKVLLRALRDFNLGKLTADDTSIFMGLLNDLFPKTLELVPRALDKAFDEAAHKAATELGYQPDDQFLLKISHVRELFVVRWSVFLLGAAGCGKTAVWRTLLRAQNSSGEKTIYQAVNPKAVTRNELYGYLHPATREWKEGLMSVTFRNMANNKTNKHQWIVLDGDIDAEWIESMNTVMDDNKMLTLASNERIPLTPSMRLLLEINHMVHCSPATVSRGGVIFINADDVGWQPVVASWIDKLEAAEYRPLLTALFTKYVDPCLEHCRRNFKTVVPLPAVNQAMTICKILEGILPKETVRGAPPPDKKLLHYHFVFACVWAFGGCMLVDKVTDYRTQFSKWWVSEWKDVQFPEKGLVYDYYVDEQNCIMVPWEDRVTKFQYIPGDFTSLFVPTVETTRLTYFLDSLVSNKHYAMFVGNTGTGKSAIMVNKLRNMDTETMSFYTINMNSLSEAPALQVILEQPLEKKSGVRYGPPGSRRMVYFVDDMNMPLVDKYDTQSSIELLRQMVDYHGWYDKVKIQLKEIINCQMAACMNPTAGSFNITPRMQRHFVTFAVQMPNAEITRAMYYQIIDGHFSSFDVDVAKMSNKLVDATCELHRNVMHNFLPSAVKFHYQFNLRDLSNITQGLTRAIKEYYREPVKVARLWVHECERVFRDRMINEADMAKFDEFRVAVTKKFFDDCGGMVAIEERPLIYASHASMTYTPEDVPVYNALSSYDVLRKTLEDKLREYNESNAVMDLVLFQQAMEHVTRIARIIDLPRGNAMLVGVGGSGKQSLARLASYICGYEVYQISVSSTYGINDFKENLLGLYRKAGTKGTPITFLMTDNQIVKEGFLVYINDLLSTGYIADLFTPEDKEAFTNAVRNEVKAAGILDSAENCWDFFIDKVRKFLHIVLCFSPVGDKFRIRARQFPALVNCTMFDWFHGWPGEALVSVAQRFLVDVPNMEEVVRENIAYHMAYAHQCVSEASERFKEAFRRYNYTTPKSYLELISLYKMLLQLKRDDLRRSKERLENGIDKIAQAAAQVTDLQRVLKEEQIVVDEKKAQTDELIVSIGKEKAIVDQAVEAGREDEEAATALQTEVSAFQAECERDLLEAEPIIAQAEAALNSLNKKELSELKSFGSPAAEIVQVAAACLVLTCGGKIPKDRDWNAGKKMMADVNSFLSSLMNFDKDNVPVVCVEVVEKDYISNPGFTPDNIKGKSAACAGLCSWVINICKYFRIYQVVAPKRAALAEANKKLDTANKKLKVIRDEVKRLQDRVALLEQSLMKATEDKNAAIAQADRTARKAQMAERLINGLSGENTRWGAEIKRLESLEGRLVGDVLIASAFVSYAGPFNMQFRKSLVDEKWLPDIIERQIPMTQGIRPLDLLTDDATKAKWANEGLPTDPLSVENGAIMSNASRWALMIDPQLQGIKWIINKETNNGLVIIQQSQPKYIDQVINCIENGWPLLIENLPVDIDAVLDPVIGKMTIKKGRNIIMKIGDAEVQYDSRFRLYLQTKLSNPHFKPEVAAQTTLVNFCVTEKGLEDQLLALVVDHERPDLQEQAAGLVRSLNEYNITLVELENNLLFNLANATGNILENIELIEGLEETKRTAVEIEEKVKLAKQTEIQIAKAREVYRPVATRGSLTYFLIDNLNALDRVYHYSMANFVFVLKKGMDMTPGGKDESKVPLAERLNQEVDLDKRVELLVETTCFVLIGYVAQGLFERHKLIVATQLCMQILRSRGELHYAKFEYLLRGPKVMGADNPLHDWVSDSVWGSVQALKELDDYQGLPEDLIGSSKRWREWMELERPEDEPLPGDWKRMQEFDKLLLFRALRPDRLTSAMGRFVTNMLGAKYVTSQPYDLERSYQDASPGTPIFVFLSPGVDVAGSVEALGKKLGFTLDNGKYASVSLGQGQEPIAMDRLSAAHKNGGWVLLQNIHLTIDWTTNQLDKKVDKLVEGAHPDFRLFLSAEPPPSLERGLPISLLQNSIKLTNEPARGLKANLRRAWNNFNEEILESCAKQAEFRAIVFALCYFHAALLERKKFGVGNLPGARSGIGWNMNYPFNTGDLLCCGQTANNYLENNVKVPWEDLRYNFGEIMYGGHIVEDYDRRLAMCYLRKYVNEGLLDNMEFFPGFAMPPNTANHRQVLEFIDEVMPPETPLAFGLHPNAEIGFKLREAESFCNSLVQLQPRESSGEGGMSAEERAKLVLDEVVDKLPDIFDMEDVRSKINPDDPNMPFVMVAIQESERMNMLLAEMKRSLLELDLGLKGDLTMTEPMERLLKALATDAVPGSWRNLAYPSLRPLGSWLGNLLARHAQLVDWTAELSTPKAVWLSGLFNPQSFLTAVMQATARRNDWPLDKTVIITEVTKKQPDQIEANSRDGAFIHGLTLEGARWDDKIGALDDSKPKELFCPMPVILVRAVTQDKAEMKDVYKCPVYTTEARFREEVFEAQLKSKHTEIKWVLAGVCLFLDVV

Row | Substance | vmax of microtubule gliding on dynein-coated slides (fit to Eq. 1) [1] [μm/s] | L0 of microtubule gliding (microtubule length at vmax/2) [2] [μm] | vmax of microtubule gliding on dynein-coated slides (fit to Eq. 1) [2] [μm/s]
1 | porcine brain microtubules, untreated (α-β-tubulin microtubules) (from UniProt P02550 1-451; P02554 1-445) (complex) | 1.7 |  | 
2 | α-βs-tubulin porcine microtubules (10 μg/mL subtilisin) (from UniProt P02550 1-451) (complex) | 1.93 |  | 
3 | Chlamydomonas axonemal microtubules from SIRT2-deacetylated tubulin (complex) |  | 0.39 | 1.66
4 | αs-βs-tubulin porcine microtubules (200 μg/mL subtilisin) (complex) | 2.27 |  | 
5 | Chlamydomonas axonemal microtubules, untreated (complex) |  | 0.43 | 2.09
